Test results as given in US9266930.
Where two headings read alike, the source gives them in different places.

What was measured:
[1] = target: HLA-B*3501 (human); test: competition with 125I probe peptide for purified HLA, gel filtration
[2] = target: HLA-A*1101 (Human); test: competition with 125I-labelled probe peptide for purified HLA-A*1101
[3] = target: HLA-B*0702 (Human)
[4] = target: T1, HLA-DR7 (DRB1*0701) (human)
T1 chain 1: not shown
T1 chain 2: not shown

[5] = target: T2, HLA-DR6w19 (DRB1*1302) (human)
T2 chain 1: not shown
T2 chain 2: not shown

[6] = target: T3, HLA-DR9 (DRB1*0901) (human)
T3 chain 1: not shown
T3 chain 2: not shown

[7] = target: T4, HLA-DR5w12 (DRB1*1201) (human)
T4 chain 1: not shown
T4 chain 2: not shown

[8] = target: HLA-DR4w15 (DRB1*0405) (human); test: competition with 125I-labeled probe peptide on purified HLA-DR, gel filtration
[9] = target: HLA-DR1 (DRB1*0101) (human); test: as above
[10] = target: T5, HLA-DR4w4 (DRB1*0401) (human); test: as above
T5 chain 1: not shown
T5 chain 2: not shown

[11] = target: HLA-DR5w11 (DRB1*1101) (human); test: as above
[12] = target: HLA-DR2w2β2 (DRB5*0101) (human); test: as above
[13] = target: HLA-A*6801 (human); test: competition with 125I-labeled probe peptide for purified HLA, gel filtration; settings: scale: ratio
[14] = target: HLA-A*3301 (human); test: as above; settings: scale: ratio
[15] = target: HLA-A*0301 (human); test: as above; settings: scale: ratio
[16] = target: HLA-A*1101 (human); test: as above; settings: scale: ratio
[17] = target: T6, HLA-DR2w2β1 (DRB1*1501) (human); test: inhibition of 125I-probe peptide binding to purified HLA-DR, gel filtration
T6 chain 1: not shown
T6 chain 2: not shown

[18] = target: T7, HLA-DR3 (DRB1*0301) (human); test: as above
T7 chain 1: not shown
T7 chain 2: not shown

[19] = target: T8, HLA-DR4w15 (DRB1*0405) (human); test: as above
T8 chain 1: not shown
T8 chain 2: not shown

[20] = target: T9, HLA-DR2w2β2 (DRB5*0101) (human); test: as above
T9 chain 1: not shown
T9 chain 2: not shown

[21] = target: T10, HLA-DR5w11 (DRB1*1101) (human); test: as above
T10 chain 1: not shown
T10 chain 2: not shown

[22] = target: T5, HLA-DR4w4 (DRB1*0401) (human); test: as above
[23] = target: T11, HLA-DR1 (DRB1*0101) (human); test: as above
T11 chain 1: not shown
T11 chain 2: not shown

[24] = target: HLA-A*6802 (human); test: competition with 125I probe peptide for purified HLA, gel filtration
[25] = target: HLA-A*0203 (human); test: as above
[26] = target: T6, HLA-DR2w2β1 (DRB1*1501) (human)
[27] = target: T7, HLA-DR3 (DRB1*0301) (human)
[28] = target: T8, HLA-DR4w15 (DRB1*0405) (human)
[29] = target: T9, HLA-DR2w2β2 (DRB5*0101) (human)
[30] = target: T10, HLA-DR5w11 (DRB1*1101) (human)
[31] = target: T5, HLA-DR4w4 (DRB1*0401) (human)
[32] = target: T11, HLA-DR1 (DRB1*0101) (human)
[33] = target: HLA-A*3301 (human); test: competition with 125I-labelled standard peptide for purified HLA, gel filtration
[34] = target: HLA-A*0301 (human); test: as above
[35] = target: HLA-A*1101 (human); test: as above
[36] = target: HLA-A*3101 (human); test: as above
[37] = target: HLA-B*5401 (human); test: competition with 125I probe peptide for purified HLA, gel filtration
[38] = target: HLA-B*0702 (human); test: as above
[39] = target: HLA-A*2401 (as the column head of Table X prints it), purified HLA class I molecule (human); test: competition with 125I-labelled standard peptide for purified HLA, gel filtration
[40] = target: HLA-A*6801 (human); test: as above

Q: How did the IC50 [1] turn out when LPYGRTNL (modifications not checked) [19.0051] was run?
A: > 30000 nM

Q: For EDNEKLRKPK (modifications not checked) [… (Pf CSP 100, A11 motif peptide)], which binding affinity ratio (IC50 of standard peptide / IC50 of test peptide) [2] is on record?
A: 0.0002

Q: For NPEDDREENF (modifications not checked) [… (P. falciparum SSP2, position 382)], which binding affinity ratio (IC50 of standard peptide / IC50 of test peptide) [3] is on record?
A: 0.0001

Q: What does the source list for VFNVVNSSIGLIMVL (modifications not checked) [… (Pf CSP DR-supermotif 15-mer, core …)]?
A: binding affinity ratio (relative to standard peptide) [4]: 0.18; binding affinity ratio (relative to standard peptide) [5]: 0.26; binding affinity ratio (relative to standard peptide) [6]: 0.5; binding affinity ratio (relative to standard peptide) [7]: 0.0015

Q: For EALFQEYQCY (modifications not checked) [… (Pf CSP 17, A11 motif peptide)], which binding affinity ratio (IC50 of standard peptide / IC50 of test peptide) [2] is on record?
A: 0.0002

Q: For SCGVWDEWSPCSVTC (modifications not checked), which binding affinity ratio (IC50 standard peptide / IC50 test peptide) [8] is on record?
A: -0.0009

Q: And the binding affinity ratio (IC50 standard peptide / IC50 test peptide) [9]?
A: 0.0001

Q: And the binding affinity ratio (IC50 standard peptide / IC50 test peptide) [10]?
A: -0.0009

Q: And the binding affinity ratio (IC50 standard peptide / IC50 test peptide) [11]?
A: -0.0002

Q: What about the binding affinity ratio (IC50 standard peptide / IC50 test peptide) [12] of the same binder?
A: -0.0005

Q: How did the binding affinity ratio (relative to standard peptide) [13] turn out when VSSKKKNKK (modifications not checked) [… (P. falciparum EXP, position 33, 9 amino acids)] was run?
A: 0.0002

Q: What about the binding affinity ratio (relative to standard peptide) [14] of the same binder?
A: 0.001

Q: And the binding affinity ratio (relative to standard peptide) [15]?
A: 0.0001

Q: And the binding affinity ratio (relative to standard peptide) [16]?
A: 0.0002

Q: RHPFKIGSSDPADNA (modifications not checked) was tested. Which binding affinity ratio (relative binding) (ratio to standard peptide) [17] did it give?
A: -0.0004

Q: And the binding affinity ratio (relative binding) (ratio to standard peptide) [18]?
A: -0.0008

Q: What about the binding affinity ratio (relative binding) (ratio to standard peptide) [19] of the same binder?
A: 0.0029

Q: What about the binding affinity ratio (relative binding) (ratio to standard peptide) [20] of the same binder?
A: -0.0005

Q: What about the binding affinity ratio (relative binding) (ratio to standard peptide) [21] of the same binder?
A: 0.0056

Q: What about the binding affinity ratio (relative binding) (ratio to standard peptide) [22] of the same binder?
A: 0.47

Q: What about the binding affinity ratio (relative binding) (ratio to standard peptide) [23] of the same binder?
A: 0.0044

Q: How did the IC50 [24] turn out when ILSVSSFLFV (modifications not checked) [1167.18] was run?
A: 2100 nM

Q: What about the IC50 [25] of the same binder?
A: 19 nM

Q: Which binding affinity ratio (relative binding) (ratio to standard peptide) [26] does the source give for VFFLALFFIIFNKES (modifications not checked) here?
A: 0.018

Q: What about the binding affinity ratio (relative binding) (ratio to standard peptide) [27] of the same binder?
A: -0.0043

Q: What about the binding affinity ratio (relative binding) (ratio to standard peptide) [28] of the same binder?
A: 0.01

Q: What about the binding affinity ratio (relative binding) (ratio to standard peptide) [29] of the same binder?
A: -0.0021

Q: And the binding affinity ratio (relative binding) (ratio to standard peptide) [30]?
A: -0.0005

Q: What about the binding affinity ratio (relative binding) (ratio to standard peptide) [31] of the same binder?
A: 0.0047

Q: And the binding affinity ratio (relative binding) (ratio to standard peptide) [32]?
A: 0.0006

Q: Which binding affinity ratio (IC50 of standard peptide / IC50 of test peptide) [33] does the source give for QSQDNNGNR (modifications not checked) here?
A: 0.0093

Q: And the binding affinity ratio (IC50 of standard peptide / IC50 of test peptide) [34]?
A: 0.0005

Q: And the binding affinity ratio (IC50 of standard peptide / IC50 of test peptide) [35]?
A: 0.0002

Q: What about the binding affinity ratio (IC50 of standard peptide / IC50 of test peptide) [36] of the same binder?
A: 0.002

Q: For TPYAGEPAPF (modifications not checked) [1167.61], which IC50 [37] is on record?
A: 25000 nM

Q: What about the IC50 [38] of the same binder?
A: 31 nM

Q: For PYAGEPAPF (modifications not checked) [… (Pf SSP2 position 528, 9-mer)], which binding affinity ratio (IC50 of standard peptide / IC50 of test peptide) [39] is on record?
A: 0.037

Q: VPLAMKLI (modifications not checked) [VPLAMKLI (P. falciparum SSP2, position 69)] was tested. Which binding affinity ratio (IC50 of standard peptide / IC50 of test peptide) [3] did it give?
A: 0.0001

Q: Which results are given for YADSAWENVK (modifications not checked)?
A: binding affinity ratio (IC50 of standard peptide / IC50 of test peptide) [40]: 0.0077; binding affinity ratio (IC50 of standard peptide / IC50 of test peptide) [33]: 0.0009; binding affinity ratio (IC50 of standard peptide / IC50 of test peptide) [35]: 0.0002; binding affinity ratio (IC50 of standard peptide / IC50 of test peptide) [36]: 0.0009

Q: Which binding affinity ratio (IC50 of standard peptide / IC50 of test peptide) [39] does the source give for KYLVIVFLIF (modifications not checked) [… (Pf SSP2 position 8, 10-mer)] here?
A: 0.0003
